This is an account of results in the nanobody polyreactivity screen of Harvey et al. (2022).

The series is described as follows: yeast display, Sf9 membrane polyspecificity reagent, FACS + sequencing; frameworks hold sequencing errors. An outline of the steps: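 After 36–48 hours of galactose induction, yeast (Saccharomyces cerevisiae BJ5465) displaying a synthetic nanobody library were stained at 4 °C for 1 hour with 10% biotinylated, detergent-solubilized Sf9 membrane reagent. Streptavidin microbeads enriched the stained cells before FACS sorting into low and high (top ~1%) gates on anti-HA and streptavidin fluorescence. Each clone's polyreactivity label reflects its gate of origin.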
Regarding “QVQLVESGGGLVQAGGSLRLSCAASGLTFWPYVMGWYRQAPGKERELVAAIDDTGITYYADSVKGRFTISRDNEKNTVYLQMNTLKPEDTAVYYCATDWDYYFPWIYPSDAGPEDGYCGQGTQVTVSS”, the “polyreactivity (PSR sort gate)” value is reported as “low polyreactivity”. To “QVQLVESGGGLVQAGGSLRLSCAASGLTFWRYTMGWYRPAPGKERELVAVITYRGGSTYYADSVKGRFTISRDYAKNTVYLQMNSLKPEDTAVYYCAAGLSTYGLTYDYWGQGTQVTVSS” belongs “high polyreactivity”. To “QVQLVESGGGLVQAGGSLRLSCAASGLTFWRYVMGWYRQAPGKERELVATISIGGSTNYADSVKGRVTISRDNAKNTVYLQMNSLKPEDTAVYYCAAKFRGDVFPYYYWGQGTQVTVSS” belongs “high polyreactivity”. Then “QVQLVESGGGLVQAGGSLRLSCAASGLTFWVYTMGWYRQAPGKERELVAAITRGGSTTYADSVKGRFTISRDNAKNSVYLQMNSLQPEDTAVYYCNAVYKYSVVYKLDYWGQGTQVTVSS”, with “high polyreactivity”. As for “QVQLVESGGGLVQAGGSLRLSCAASGLTFWYYAMGRYRHAPRKERELVATITWSGRTYYADSVKGRFTISRDNAKNTVYLQMNSLKTEDTAVYYCNAVKGRLQYSYDYWGQGTQVTVSS”, the “polyreactivity (PSR sort gate)” value was “high polyreactivity”.

In the case of “QVQLVESGGGLVQAGGSLRLSCAASGLTFWYYAMGWYRQAPGKERELVAAITSVGSTYYADSVKGRFTISRDNAKNTVYLQMNSLKPEDTAVYYCAAGVPPLYFRRGGDYWGQGTQGTVSS”, the “polyreactivity (PSR sort gate)” value was “high polyreactivity”. On to “QVQLVESGGGLVQAGGSLRLSCAASGLTFYANAMGWYRQAPGKERELVAAITSSGGSTYYADSVKGRFTISRDNAKNTVYLQMNSLKPDDTAVYYCNAYFRPRYGYWGQGTQVTVSS”, for which the “polyreactivity (PSR sort gate)” value is “high polyreactivity”. To “QVQLVESGGGLVQAGGSLRLSCAASGLTFYDYAKGWYRQAPGKELELVADIDFNGGSTSYADSVKGRFTISRDNAKNTVYLQMNSLKPEDTAVYYCAVDFIYWFHSRSSYIYDYWGQGSQVTVSS” belongs “low polyreactivity”; to “QVQLVESGGGLVQAGGSLRLSCAASGLTFYEYAMGWYRQAPGKERELVAAISWRGDSTHYADSVKGRFTISRDNAKNTVYLQMNSLKPEDTAVYYCNTRRLHGWLYGYEYWGQGTQVTVSS”, “low polyreactivity”; to “QVQLVESGGGLVQAGGSLRLSCAASGLTFYFNAMVWYRQAPVKERQLVAAIDWGGGSTYYADSVKGRFTISRDNAKNTVYLQMNSLNPEDTAVYYCGARGYYYNYDVNYWVQGTQVTVSS”, “low polyreactivity”. Then “QVQLVESGGGLVQAGGSLRLSCAASGLTFYGYGMGWYRQAPGKERELVASITSGGNTYYADSVKGRFTISRDNAKNTVYLQMNSLKPEDTAVYYCNADDGGPGVVLPTKEYDYWGQGTQVTVSS”, with “low polyreactivity”. To “QVQLVESGGGLVQAGGSLRLSCAASGLTFYKYAMGWYRQAPGKERELVAAITSTGGSTYYADSVKGRFTISRDNAKNTVYLQMNSLKPEDTAVYYCAAQWYTALYYWGQGTQVTVSS” belongs “high polyreactivity”. Regarding “QVQLVESGGGLVQAGGSLRLSCAASGLTFYLYAMGWYRPAPGKERELVAGISYRGASTYYADSVKGRFTISRDNAKNTVYLQMNSLKPEDTAVYYCAADDTTPNGVYWGQGTQVTVSS”, the “polyreactivity (PSR sort gate)” value was “low polyreactivity”. To “QVQLVESGGGLVQAGGSLRLSCAASGLTFYLYVMGWYRQAPGKERELVAAISRRGGTTYYADSVKGRFTISRDNAKNTVYLQMNSLKPEDTAVYYCAADFFAGTQRTFDYWGQGTQVTVSS” belongs “high polyreactivity”; to “QVQLVESGGGLVQAGGSLRLSCAASGLTFYLYVMGWYRQAPWKERELVAAISRRGGSTYYADSVKGRFTISRDNAKNTVYLQMNSLKPEDTAVYYCAARVYGTYRGIQYGYWGQGTQVTVSS”, “high polyreactivity”. To “QVQLVESGGGLVQAGGSLRLSCAASGLTFYNARGWYRQAPGKERELVAAISGTVSRTYYADSVKGRFTISRDNAKNTVYLEMNSLKPEDTAVYYCAVRWYGKYSGVRYYYWGQGTQVNVSS” belongs “high polyreactivity”. To “QVQLVESGGGLVQAGGSLRLSCAASGLTFYQNAMGWYRQAPGKERELVAAISSSGGRTYYADSVKGRFTISRDNAKNTVYLQMNSLKPEDTAVYYCAAYRRYRNWFNYWGQGTQVTVSS” belongs “high polyreactivity”; to “QVQLVESGGGLVQAGGSLRLSCAASGLTFYSYAMGWYRQAPGKERELVAAISSSGGNTYYADSVKGRFTISRDNAKNTVYLQMNSLKPEDTAVYYCNVYHWSRVFAIDYYWGQATQVTVSS”, “high polyreactivity”; to “QVQLVESGGGLVQAGGSLRLSCAASGLTFYTYAMGWYRQAPGKERELVAAISGGGRTHYADSVKGRFTISRDNAKNTVYLQMNSLKPEDTAVYYCAKDKGFLVRYDDLHDYDYWGQGTQVTVSS”, “low polyreactivity”.

For “QVQLVESGGGLVQAGGSLRLSCAASGLTFYTYAMGWYRQAPGKERELVAAISGRGSRTFYADSVKGRFTISRDNAKNTVYLQMNSLKPEDTAVYYCAARVWSSFTGAYDYWGQGTQVTVSS”, the “polyreactivity (PSR sort gate)” value is given as “high polyreactivity”. To “QVQLVESGGGLVQAGGSLRLSCAASGLTFYVYAMGWYRQAPGKEREFVAAITRSGGSTHFADSVKGGFTISRDNAKYTVYLQMNSLKPEDTAVYYGAARAIRYYIRYYYWGQGTQVTVSS” belongs “high polyreactivity”. Then “QVQLVESGGGLVQAGGSLRLSCAASGLTFYYNTMGWYRQAPGKERELVAAINWSGGRTYYADSVKGRFTISRDNAKNTVYLQMNSLKPEDTAVYYCNAASSRALGYAYDYWGQGTQVTVSS”, with “high polyreactivity”; and “QVQLVESGGGLVQAGGSLRLSCAASGLTFYYYAMGWYRQAPGKEREFVAAISRSGGTTYYADSVKGRFTISRDNAKNTVYLQMISLKPEDTAVYYCNAQWWRYWPSQVIFDYWGQGTQVTVSS”, with “high polyreactivity”; and “QVQLVESGGGLVQAGGSLRLSCAASGLTFYYYAMGWYRQAPGKERELVAAITSGGITYYADSVKGRFTISRDNEKNTVYLQMNSLKPEDTAVYYCAARYHIDTLFYGSRYDYWGQGTQVTVSS”, with “high polyreactivity”.

“QVQLVESGGGLVQAGGSLRLSCAASGLTFYYYAMGWYRQAPGKERELVATISGSGGNTYYADSVKGRFTISRDNAKNTVYLQMNSLKPEDTAVYYCNARYRWWLYYSRDRVYCWGQGTQVTVSS”: the “polyreactivity (PSR sort gate)” value was “high polyreactivity”. Then “QVQLVESGGGLVQAGGSLRLSCAASGLTFYYYAMGWYRQAPGKERELVATISSGGGRTYADSVKGRFTISRDNAKNTVYLQMNSLKPEDTAVYYCAVRNTKSYWFGYWGQGTQVTVSS”, with “high polyreactivity”. To “QVQLVESGGGLVQAGGSLRLSCAASGLTIASYVMGWYRQAPGKERELVAAISSSGDSTYYADSVKGRFTISRDNAKNTVYLQMNSLKPEDTAVYYCAAKDSVWGQGTQVTVSS” belongs “low polyreactivity”; to “QVQLVESGGGLVQAGGSLRLSCAASGLTIQLYAMGWYRQAPGKERELVAAISGSGGRTYYADSVKGRFTISRDNAKNTVYLQMNSLKPEDTAVYYCAARPGSGRSYTSDYWGQGTEVTVSS”, “high polyreactivity”.

With “QVQLVESGGGLVQAGGSLRLSCAASGLTIVGNAMGWYRQAPGKERELVASISSRGGSTYYADSVKGRFTISLDNSKNTVYLQMNSLNPEDTAVYYCAAGNSYGVRLLYQIVTRYYWGQGTQVTVSS”, the “polyreactivity (PSR sort gate)” value is given as “high polyreactivity”. To “QVQLVESGGGLVQAGGSLRLSCAASGLTIWRHAMGWYRQAPGKEREFVATISQNGGRTYYADSVKGRFTISRDNAKNTVYLQMNSLKPEDTAVYYCAADDWRWRYDYWGQGTQVTVSS” belongs “high polyreactivity”; to “QVQLVESGGGLVQAGGSLRLSCAASGLTIWRYAMGWYRQAPGKETEFVASISQNGGRTDYADSVKGRFTISRDNAKNTVYLQMNSLKPEDTAVYYCAARRYYGVYYAFYFWRQGTQVTVSS”, “high polyreactivity”; to “QVQLVESGGGLVQAGGSLRLSCAASGLTLAPYAMGWYRQAPGKERELVAAITFSGGSTYYADSVKGRLSISRDNAKNTVYLQMNSLKPEDTAVYYCARDTWAYKNGYPYYSWGQGTQVTVSS”, “low polyreactivity”.

Take “QVQLVESGGGLVQAGGSLRLSCAASGLTLAWYAMGWYRQAPGKERELVAAISWSGDSTYYADSVKGRFTISRDNAKNTVYLQMNSLKPEDTAVYYCATRVYGGYGYWGQGTQVTVSS”: the “polyreactivity (PSR sort gate)” value is recorded as “high polyreactivity”. On to “QVQLVESGGGLVQAGGSLRLSCAASGLTLDYYAMGWSRQGPGKERELVAVIRGRSGSTYYADSVKGRFTISRDNAKNTDYLQMNSLKPEDTAVYYGARVTTYGDYYWGQGTQVTVSS”, for which the “polyreactivity (PSR sort gate)” value is reported as “high polyreactivity”. Then “QVQLVESGGGLVQAGGSLRLSCAASGLTLFRYAMGWYRQAPGKERELVAAIDYGGGTYYADSVKGRFTISRDNAKNTVYLQMNSLKPEDTAVYYCAVEPEYKYYEGDYWGQGTQVTVSS”, with “low polyreactivity”; and “QVQLVESGGGLVQAGGSLRLSCAASGLTLKYYAMGWYRQAPGKERELVAAITYSGGSTYYADSVKGRFTFSRDNAKNTVYLQMNSLIPEDTAVFYCNAGPSVTSGYDYDYWGQGTQVTVSS”, with “low polyreactivity”; and “QVQLVESGGGLVQAGGSLRLSCAASGLTLRCNTMGWYRQAPGKERELVADITASAGSTYYADSVKGRFTISRDNAKNTVYLQMISLKPEDTAVYYCAARVYIAYISMDHWGQGTQVTVSS”, with “low polyreactivity”. Then “QVQLVESGGGLVQAGGSLRLSCAASGLTLRRYAMGWYRQAPGKERELVASINSGTSTKYADSVKGRFTISRDNAKNTVYLQMNSLKPEDTAVYYCAAAGYFPTAGSRRAYYYWGQGTQVTVSS”, with “high polyreactivity”; and “QVQLVESGGGLVQAGGSLRLSCAASGLTLSGYAMGWYRQAPGKERELVAAISSTGGSTYYADSVKGRFTISRDNAKNTVYLQMNSLKPEDTAVYYCAKGFSPTRVRLRYPRYDTYNHWGQGTQVTVSS”, with “high polyreactivity”; and “QVQLVESGGGLVQAGGSLRLSCAASGLTLSYNAMGWYRQAPGKERELVAAIRSGGSTNYADSVKGRFTISRDNAKNTVYLQMNSLKPEDTAVYYCAARFRYLPYRYGRYQSGYEYWGLGTQVTVSS”, with “high polyreactivity”.
